For assay [1], the target named is SgcE10, chymotrypsin digested (crystallised form) (Streptomyces globisporus). In words: crystal structure.
Assay [2] concerns the target SgcE10, thioesterase (TE) of the 9-membered enediyne C-1027 biosynthetic machinery (Streptomyces globisporus). Put plainly: SEC. (In general: SEC sorts molecules by how far they enter the pores of the column.)

The stoichiometry N is a count of units in the complex or per binding partner.

As to “SgcE10, chymotrypsin digested (crystallised form) (enzyme)”, the stoichiometry N in assay [1] was 4.

“SgcE10, thioesterase (TE) of the 9-membered enediyne C-1027 biosynthetic machinery (enzyme)” showed a stoichiometry N in assay [2] of 4.

The values above are taken from publication PMC5579567.
